PMC12685124 (Proceedings of the National Academy of Sciences of the …, 2025)

What was measured:
[1] = biological target: T1, mesencephalic astrocyte-derived neurotrophic factor (Manf), recombinant (UniProt P55145 25-182); experiment: MST
[2] = biological target: T2, brain-derived neurotrophic factor (BDNF) (UniProt P23560 19-247); experiment: MST
T2 sequence (looked up): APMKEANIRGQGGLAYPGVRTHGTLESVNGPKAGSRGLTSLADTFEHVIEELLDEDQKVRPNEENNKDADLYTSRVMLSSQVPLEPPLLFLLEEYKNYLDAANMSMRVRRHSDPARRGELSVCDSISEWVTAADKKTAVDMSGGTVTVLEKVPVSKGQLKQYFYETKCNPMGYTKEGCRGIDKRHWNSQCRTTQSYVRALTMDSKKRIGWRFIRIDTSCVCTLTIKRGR

[3] = biological target: T1, mesencephalic astrocyte-derived …; experiment: ELISA

B1: recombinant Np55 protein, extracellular domain (SinoBiological) (domain or fragment)
chain: QNEPRIVTSEEVIIRDSPVLPVTLQCNLTSSSHTLTYSYWTKNGVELSATRKNASNMEYRINKPRAEDSGEYHCVYHFVSAPKANATIEVKAAPDITGHKRSENKNEGQDATMYCKSVGYPHPDWIWRKKENGMPMDIVNTSGRFFIINKENYTELNIVNLQITEDPGEYECNATNAIGSASVVTVLRVRSHLAP
modifications: RED-NHS fluorescent label (in the MST assay only)
Kd [1]: 34.6 ± 7.19 nM | Kd [2]: 1740 ± 410 nM | Kd [3]: 14.5 ± 1.17 nM
